Results reported in FireProtDB (doi:10.1093/jb/mvq079).

B1: Divalent-cation tolerance protein CutA, P69488 (parent)
chain: MLDEKSSNTASVVVLCTAPDEATAQDLAAKVLAEKLAACATLIPGATSLYYWEGKLEQEYEVQMILKTTVSHQQALLECLKSHHPYQTPELLVLPVTHGDTDYLSWLNASLR

Variants of: B1
Details: Escherichia coli (strain K12); pH 9; Thermal; DSC; glycine Buffer; transition: 2; reversible: no; structure 3X3U; whole UniProt chain shown

Variant | Tm [°C] | change of melting temperature, mutant - wild type (higher = more stable) [°C]
S11I | 103 | 12.8
S11A | 106 | 16.5
G45Q | 82.1 | -7.8
Y60T | 91.9 | 2
E61H | 94.3 | 4.4
E59Q | 98.3 | 8.4
